Laboratory results as given in patent US20250381241, “METHODS AND COMPOSITIONS TO MODULATE RIOK2” (Dana-Farber Cancer Institute, Inc., published 2025).

B1: GATA1-WT duplex (dsDNA)
DNA 1: ACACACCTGTAGTCCCAGCTACTCAGGAGG
DNA 2: CCTCCTGAGTAGCTGGGACTACAGGTGTGT
B2: RUNX3-WT duplex (dsDNA)
DNA 1: CCGGGCGCCGCCCCCTGCGCCCTGAGGCCC
DNA 2: GGGCCTCAGGGCGCAGGGGGCGGCGCCCGG
B3: SPI1-WT duplex (dsDNA)
DNA 1: AAGGGGACTATCTCCCAGCGGCAGGCCCTT
DNA 2: AAGGGCCTGCCGCTGGGAGATAGTCCCCTT
B4: GATA2-WT duplex (dsDNA)
DNA 1: CTTGGGCTTTCCTCCCACCCGGGACTGGTG
DNA 2: CACCAGTCCCGGGTGGGAGGAAAGCCCAAG

target: RIOK2 (rhRIOK2, full length) (Homo sapiens, UniProt Q9BVS4 SEQ:1-552); test: EMSA; low-salt buffer, 4 C, protein:DNA 5:1; conditions: tags: GST; Abcam
Description: Recombinant human GST-tagged RIOK2 (rhRIOK2, Abcam) was incubated with duplex DNA (Table 5) at 5:1 molar ratio in a low-salt buffer for 20-30 minutes at 4° C. and 2% agarose gel was cast and cooled to 4° C. The DNA-protein mixture was supplemented with 0.22p filtered 50% glycerol solution to facilitate loading. The gel was run for 1.5 hours at 4° C., followed by incubation in ethidium bromide solution for 30 minutes and visualized using ChemiDoc Touch Imaging system (Bio-Rad). ImageJ was used to quantify band shifts.

Chain of RIOK2 (rhRIOK2, full length) (Q9BVS4 whole entry): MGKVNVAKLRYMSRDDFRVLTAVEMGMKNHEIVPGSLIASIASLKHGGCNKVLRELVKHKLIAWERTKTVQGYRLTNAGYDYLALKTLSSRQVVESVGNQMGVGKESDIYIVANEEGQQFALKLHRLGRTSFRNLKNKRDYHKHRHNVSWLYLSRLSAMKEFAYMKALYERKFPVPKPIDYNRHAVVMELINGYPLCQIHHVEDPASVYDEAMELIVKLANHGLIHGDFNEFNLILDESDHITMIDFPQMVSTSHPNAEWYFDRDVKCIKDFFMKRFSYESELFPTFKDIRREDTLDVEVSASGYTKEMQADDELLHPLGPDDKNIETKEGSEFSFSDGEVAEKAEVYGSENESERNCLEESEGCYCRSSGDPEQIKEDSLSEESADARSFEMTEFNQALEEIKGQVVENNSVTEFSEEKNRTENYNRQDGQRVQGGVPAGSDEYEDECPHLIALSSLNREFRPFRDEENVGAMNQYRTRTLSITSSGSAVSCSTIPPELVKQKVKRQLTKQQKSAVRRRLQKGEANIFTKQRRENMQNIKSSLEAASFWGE

Binding result, binds:
B1
B2
B3
B4
